{"source": "patent US20230250154", "key": {"[1]": {"system": "T1, Tagged wild-type human A2M", "T1 sequence": "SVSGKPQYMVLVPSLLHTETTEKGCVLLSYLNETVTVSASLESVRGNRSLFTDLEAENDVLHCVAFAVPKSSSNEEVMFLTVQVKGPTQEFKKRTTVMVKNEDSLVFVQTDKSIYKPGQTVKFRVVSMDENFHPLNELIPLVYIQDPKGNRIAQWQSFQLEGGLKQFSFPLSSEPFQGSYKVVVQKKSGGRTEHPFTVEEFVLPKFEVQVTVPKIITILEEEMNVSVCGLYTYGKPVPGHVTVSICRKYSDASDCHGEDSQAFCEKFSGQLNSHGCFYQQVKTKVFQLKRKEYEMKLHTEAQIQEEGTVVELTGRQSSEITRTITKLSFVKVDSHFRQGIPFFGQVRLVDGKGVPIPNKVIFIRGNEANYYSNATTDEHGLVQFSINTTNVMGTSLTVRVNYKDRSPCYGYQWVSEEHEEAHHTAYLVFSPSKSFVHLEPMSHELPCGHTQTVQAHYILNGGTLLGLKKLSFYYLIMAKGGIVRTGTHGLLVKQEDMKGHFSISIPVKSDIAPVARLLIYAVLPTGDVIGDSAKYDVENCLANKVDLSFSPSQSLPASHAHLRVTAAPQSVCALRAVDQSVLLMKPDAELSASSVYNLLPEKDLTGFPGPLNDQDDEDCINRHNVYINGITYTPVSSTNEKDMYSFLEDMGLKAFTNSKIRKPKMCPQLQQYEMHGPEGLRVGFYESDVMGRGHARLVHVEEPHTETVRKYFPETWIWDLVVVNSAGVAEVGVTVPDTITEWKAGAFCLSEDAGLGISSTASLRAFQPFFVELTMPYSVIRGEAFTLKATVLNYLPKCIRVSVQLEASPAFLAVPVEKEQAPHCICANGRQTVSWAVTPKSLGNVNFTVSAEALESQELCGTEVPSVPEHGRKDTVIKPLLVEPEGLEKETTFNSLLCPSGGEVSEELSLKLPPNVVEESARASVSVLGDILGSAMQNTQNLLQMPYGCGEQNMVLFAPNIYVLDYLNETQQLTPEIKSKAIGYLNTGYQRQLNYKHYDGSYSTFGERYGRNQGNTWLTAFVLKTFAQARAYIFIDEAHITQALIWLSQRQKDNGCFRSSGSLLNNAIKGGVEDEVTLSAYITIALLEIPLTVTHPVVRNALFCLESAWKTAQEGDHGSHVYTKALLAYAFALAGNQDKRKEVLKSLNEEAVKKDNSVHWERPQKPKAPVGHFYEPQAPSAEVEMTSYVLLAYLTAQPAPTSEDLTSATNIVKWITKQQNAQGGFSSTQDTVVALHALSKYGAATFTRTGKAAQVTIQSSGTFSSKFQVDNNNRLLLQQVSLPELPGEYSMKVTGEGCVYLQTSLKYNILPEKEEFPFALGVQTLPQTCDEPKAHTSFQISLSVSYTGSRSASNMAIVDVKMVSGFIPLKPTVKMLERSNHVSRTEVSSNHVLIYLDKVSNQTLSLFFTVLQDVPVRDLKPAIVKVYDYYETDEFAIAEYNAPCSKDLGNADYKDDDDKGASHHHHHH"}, "[2]": {"system": "the four selected A2M variants"}}, "data": [{"substance": "chymotrypsin", "values": [{"measurement": "slope of FTC-casein digestion (fluorescent proteolysis assay)", "setting": "[1]", "result": "the variants are all capable of inhibiting various proteases, including trypsin and chymotrypsin approximately equally, to the wild-type A2M"}, {"measurement": "slope of FTC-casein digestion (fluorescent proteolysis assay)", "setting": "[2]", "result": "the variants are all capable of inhibiting various proteases, including trypsin and chymotrypsin approximately equally, to the wild-type A2M"}]}]}
